Biological target: secretory phospholipase A2 (sPLA2) from Crotalus durissus terrificus (Crotalus durissus terrificus) (UniProt P62022)
Experiment: MALDI-TOF mass spectrometry

Substance: secretory phospholipase A2 (sPLA2) from Crotalus durissus terrificus (from UniProt P62022 17-138) (enzyme)
- stoichiometry N: 2

Reference: paper PMC4167235
